Data published in publication PMC8939767 (2022).

Experiments:
Assay in all cases: BLI
[1] = molecular target: T1, HCoV-HKU1 soluble spike ectodomain protein (HCoV-HKU1, UniProt Q5MQD0 13-1300)
T1 chain: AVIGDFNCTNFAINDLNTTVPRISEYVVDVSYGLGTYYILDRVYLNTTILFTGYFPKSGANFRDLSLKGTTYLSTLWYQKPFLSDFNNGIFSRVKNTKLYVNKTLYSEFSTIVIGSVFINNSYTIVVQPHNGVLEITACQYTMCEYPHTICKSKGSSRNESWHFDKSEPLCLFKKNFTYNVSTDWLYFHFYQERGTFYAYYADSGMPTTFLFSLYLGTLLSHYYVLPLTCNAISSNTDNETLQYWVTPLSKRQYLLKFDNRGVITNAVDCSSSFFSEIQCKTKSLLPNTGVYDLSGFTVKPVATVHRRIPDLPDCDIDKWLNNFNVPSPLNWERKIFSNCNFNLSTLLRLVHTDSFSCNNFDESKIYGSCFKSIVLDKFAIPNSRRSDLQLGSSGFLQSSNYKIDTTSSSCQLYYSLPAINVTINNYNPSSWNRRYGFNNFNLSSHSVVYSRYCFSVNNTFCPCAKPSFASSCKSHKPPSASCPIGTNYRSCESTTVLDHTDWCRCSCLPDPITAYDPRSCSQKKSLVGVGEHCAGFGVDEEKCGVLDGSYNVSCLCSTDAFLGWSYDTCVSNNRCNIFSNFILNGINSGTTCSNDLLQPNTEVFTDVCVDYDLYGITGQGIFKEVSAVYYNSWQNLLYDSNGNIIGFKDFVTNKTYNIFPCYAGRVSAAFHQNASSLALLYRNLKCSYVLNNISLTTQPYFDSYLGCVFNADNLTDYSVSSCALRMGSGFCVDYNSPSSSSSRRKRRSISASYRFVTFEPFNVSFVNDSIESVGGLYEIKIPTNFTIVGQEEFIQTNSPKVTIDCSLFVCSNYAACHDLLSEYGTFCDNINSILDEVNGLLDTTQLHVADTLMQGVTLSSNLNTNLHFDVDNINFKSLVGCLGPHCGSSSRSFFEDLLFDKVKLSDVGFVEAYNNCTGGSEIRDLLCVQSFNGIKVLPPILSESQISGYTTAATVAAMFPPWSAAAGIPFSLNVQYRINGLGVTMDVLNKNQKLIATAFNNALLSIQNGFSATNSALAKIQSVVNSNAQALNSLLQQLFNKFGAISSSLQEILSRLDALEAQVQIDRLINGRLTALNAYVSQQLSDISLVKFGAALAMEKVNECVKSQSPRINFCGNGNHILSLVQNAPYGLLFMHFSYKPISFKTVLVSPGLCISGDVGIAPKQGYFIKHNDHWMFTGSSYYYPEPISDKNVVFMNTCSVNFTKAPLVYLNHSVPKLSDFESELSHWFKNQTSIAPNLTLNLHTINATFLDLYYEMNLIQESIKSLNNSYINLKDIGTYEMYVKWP

[2] = molecular target: SARS-CoV-2 soluble spike protein
[3] = molecular target: HCoV-OC43 soluble spike protein
[4] = molecular target: SARS-CoV-1 soluble spike protein

B1: CC40.8 broadly neutralizing antibody (IgG) (antibody, V domains shown)
VH: EVQLLESGGGLVQPGGSLRLSCAASGFTFSSYVMTWARQAPGKGLEWVSAISGTGYTYYADSVKGRFTVSRDNSKNTLFLQMSSLRAEDTAVYYCAITMAPVVWGQGTTVTVSS
VL: SYELTQPPSVSVSPGQTARITCSGDALPKRYAYWYQQKSGQAPILVIYEDKKRPSGIPERLSGSKSGTVATLTISGAQVEDEADYYCYSTDSSGNHAVFGGGTQLTVL
Question: For B1, which Kd [1] is on record?
Answer: The Kd was less than 1 pM.

Question: What about the Kd [2] of the same binder?
Answer: Its Kd is less than 1 pM.

Question: And the Kd [3]?
Answer: Its Kd is roughly 10000 pM.

Question: And the Kd [4]?
Answer: The Kd was less than 1 pM.
